Experimental data: patent US9493781B2, “Synthetic brassica-derived chloroplast transit peptides” (DOW AGROSCIENCES LLC, priority 2012, dated 2016)

What was measured:
[1] = system: Zea mays; experiment: Post-emergence glyphosate tolerance of dgt-28 transformed T0 corn; format: in vivo
Experimental: Herbicide Tolerance in dgt-28 Transformed Corn. Zea mays dgt-28 transformation events (T0) were allowed to acclimate in the greenhouse and were grown until plants had transitioned from tissue culture to greenhouse growing conditions (i.e., 2-4 new, normal looking leaves had emerged from the whorl). Plants were grown at 27° C. under 16 hour light: 8 hour dark conditions in the greenhouse. The plants were then treated with commercial formulations of DURANGO DMA™ (containing the herbicide glyphosate) with the addition of 2% w/v ammonium-sulfate. Herbicide applications were made with a track sprayer at a spray volume of 187 L/ha, 50-cm spray height. T0 plants were sprayed with a range of glyphosate from 280-4480 g ae/ha glyphosate, which is capable of significant injury to untransformed corn lines. A lethal dose is defined as the rate that causes >95% injury to the B104 inbred.
Post-Emergence Herbicide Tolerance in dgt-28 Transformed T0 Corn. T0 events of dgt-28 linked with TraP4, TraP5, TraP8 and TraP23 were generated by Agrobacterium transformation and were allowed to acclimate under controlled growth chamber conditions until 2-4 new, normal looking leaves had emerged from the whorl. Plants were assigned individual identification numbers and sampled for copy number analyses of both dgt-28 and aad-1. Based on copy number analyses, plants were selected for protein expression analyses. […]

[2] = system: chloroplasts of tobacco cells; experiment: Tobacco transient assay: confocal microscopy of TraP-YFP localization; format: cell-based, Nicotiana benthamiana; details: Agrobacterium-infiltrated tobacco leaves
Excerpt: The Trap8 and TraP9 chimeric chloroplast transit peptide sequences were initially tested via a transient in planta assay. Polynucleotide sequences which encode the Trap8 (SEQ ID NO:5) and TraP9 (SEQ ID NO:6) chimeric chloroplast transit peptide sequences were synthesized. A linker sequence (SEQ ID NO:7) was incorporated between the TraP sequence and the yfp coding sequence. The resulting constructs contained two plant transcription units (PTU). The first PTU was comprised of the Arabidopsis thaliana Ubiquitin 10 promoter (AtUbi10 promoter; Callis, et al., (1990) J. Biol. Chem., 265: 12486-12493), TraP-yellow fluorescent protein fusion gene (TraP-YFP; US Patent App. 2007/0298412), and Agrobacterium tumefaciens ORF 23 3′ untranslated region (AtuORF23 3′UTR; U.S. Pat. No. 5,428,147). […]
Agrobacterium-infiltrated tobacco leaves were severed from the plant, and placed into a petri-dish with water to prevent dehydration. The infiltrated tobacco leaves were observed under blue light excitation with long-pass filter glasses held in place using a Dark Reader Hand Lamp™ (Clare Chemical Research Co.; Dolores, Colo.) to identify undamaged areas of the leaf that were successfully expressing the YFP reporter proteins. […]

[3] = system: YFP protein; experiment: Western blot of infiltrated tobacco leaves (YFP expression, transit peptide processing); design: species or system Nicotiana benthamiana; details: infiltrated tobacco leaf tissue
Experimental: Samples of the infiltrated tobacco plants were assayed via Western blotting. Leaf punches were collected and subjected to bead-milling. About 100-200 mg of leaf material was mixed with 2 BBs (steel balls) (Daisy; Rogers, Ark.) and […] of PBST for 3 minutes in a Kleco™ bead mill. The samples were then spun down in a centrifuge at 14,000×g at 4° C. The supernatant was removed and either analyzed directly via Western blot or immunoprecipitated. The immunoprecipitations were performed using the Pierce Direct IP Kit™ (Thermo Scientific; Rockford, Ill.) following the manufacturer's protocol. Approximately, 50 μg of anti-YFP was bound to the resin. The samples were incubated with the resin overnight at 4° C. Next, the samples were washed and eluted the following morning and prepped for analysis by combining equal volumes of 2×8M Urea sample buffer and then boiling the samples for 5 minutes. The boiled samples were run on a 4-12% SDS-Bis Tris gel in MOPS buffer for 40 minutes. The gel was then blotted using the Invitrogen iBlot™ (Life Technologies; Carlsbad, Calif.) following the manufacturer's protocol. The blotted membrane was blocked for 10 minutes using 5% non-fat dry milk in PBS-Tween solution. The membrane was probed with the primary antibody (monoclonal anti-GFP in rabbit) used at a 1:1000 dilution in the 5% non-fat dry milk in PBS-Tween solution for 1 hour. […]

[4] = system: Arabidopsis; experiment: dgt-28, dgt-32, dgt-33, dgt-3, dgt-7 transformed Arabidopsis (T1, T2, T3) response to postemergence glyphosate, % visual injury; format: in vivo, Arabidopsis thaliana; details: T1 Arabidopsis
Outline: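 Transgenic T1, T2 and T3 Arabidopsis (low-copy events for T2/T3, hemizygous and homozygous in T2) sprayed postemergence with glyphosate at 105, 420, 1,680 or 3,360 g ae/ha. Visual injury scored 2 weeks after treatment as mean, SD and range. Non-transformed Columbia served as sensitive control.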

[5] = system: Arabidopsis; experiment: dgt-31, dgt-32, dgt-33 v1 transformed T1 Arabidopsis response to glyphosate, % visual injury 2 WAT; format: in vivo, Arabidopsis thaliana; details: with TraP8 and with TraP14 / TraP24 respectively
Experimental: Selection of transformed plants. Freshly harvested T1 seed [dgt-31, dgt-32, and dgt-33 v1 gene] were allowed to dry at room temperature and shipped to Indianapolis for testing. T1 seed was sown in 26.5×51-cm germination trays (T.O. Plastics Inc., Clearwater, Minn.), each receiving a 200 mg aliquots of stratified T1 seed (˜10,000 seed) that had previously been suspended in 40 mL of 0.1% agarose solution and stored at 4° C. for 2 days to complete dormancy requirements and ensure synchronous seed germination.
Sunshine Mix LP5 (Sun Gro Horticulture Inc., Bellevue, Wash.) was covered with fine vermiculite and subirrigated with Hoagland's solution until wet, then allowed to gravity drain. Each 40 mL aliquot of stratified seed was sown evenly onto the vermiculite with a pipette and covered with humidity domes (KORD™ Products, Bramalea, Ontario, Canada) for 4-5 days. Domes were removed once plants had germinated prior to initial transformant selection using glufosinate postemergence spray (selecting for the co-transformed dsm-2 gene).
Six days after planting (DAP) and again 10 DAP, T1 plants (cotyledon and 2-4-lf stage, respectively) were sprayed with a 0.1% solution of IGNITE™ herbicide (280 g ai/L glufosinate, Bayer Crop Sciences, Kansas City, Mo.) at a spray volume of 10 mL/tray (703 L/ha) using a DeVilbiss™ compressed air spray tip to deliver an effective rate of 200 g ae/ha glufosinate per application. Survivors (plants actively growing) were identified 4-7 days after the final spraying. Surviving plants were transplanted individually into 3-inch pots prepared with potting media (Metro Mix 360™). Plants reared in the greenhouse at least 1 day prior to tissue sampling for copy number analyses.
T1 plants were sampled and copy number analysis for the dgt-31, dgt-32, and dgt-33 v1 gene were completed. T1 plants were then assigned to various rates of glyphosate so that a range of copies were among each rate. For Arabidopsis, 26.25 g ae/ha glyphosate is an effective dose to distinguish sensitive plants from ones with meaningful levels of resistance. Elevated rates were applied to determine relative levels of resistance (105, 420, 1680, or 3360 g ae/ha).
All glyphosate herbicide applications were made by track sprayer in a 187 L/ha spray volume. Glyphosate used was of the commercial Durango dimethylamine salt formulation (480 g ae/L, Dow AgroSciences, LLC).
T1 plants selected above were subsequently transplanted to individual pots and sprayed with various rates of commercial glyphosate. Table 16 compares the response of dgt-31, dgt-32, and dgt-33 v1 and control genes to impart glyphosate resistance to Arabidopsis T1 transformants. Response is presented in terms of % visual injury 2 WAT. […] An arithmetic mean and standard deviation is presented for each treatment. […]

[6] = system: tobacco (cv. Petit Havana); experiment: Postemergence glyphosate tolerance of dgt-28 transformed T1 and T2 tobacco; format: in vivo; details: 14 DAT, 2240 g ae/ha glyphosate (DURANGO DMA)
Excerpt: Postemergence herbicide tolerance in dgt-28 transformed T1 tobacco. T1 resistant plants from each event used in the progeny testing were given unique identifiers and sampled for zygosity analyses of the dgt-28 gene. Zygosity data were used to assign 2 hemizygous and 2 homozygous replicates to each rate of glyphosate applied allowing for a total of 4 replicates per treatment. These plants were compared against wildtype Petite havana tobacco. All plants were sprayed with a track sprayer set at 187 L/ha. The plants were sprayed from a range of 560-4480 g ae/ha DURANGO DMA™. All applications were formulated in water with the addition of 2% w/v ammonium sulfate (AMS). Plants were evaluated at 7 and 14 days after treatment. Plants were assigned an injury rating with respect to overall visual stunting, chlorosis, and necrosis. The T1 generation is segregating, so some variable response is expected due to difference in zygosity.
Rates of DURANGO DMA™ ranging from 420-3360 g ae/ha glyphosate were applied to 2-3 leaf tobacco as previously described.

O=C(O)CNCP(=O)(O)O [glyphosate]
Glyphosate rate that controlled non-transformed plants [1]: ≥ 280 g ae/ha

B1: TraP9: chimeric chloroplast transit peptide SEQ ID NO:4; N-terminus from Brassica rapa EPSPS CTP, C-terminus from Brassica napus (protein)
chain: MAQASRICQNPCVISNLPKSNHRKSPFSVSLKTHQPRASSWGLKKSGTMLNGSVIRPVKVTASVS
modifications: TraP9 chimeric chloroplast transit peptide
notes: N-terminus from Brassica rapa EPSPS CTP, C-terminus from Brassica napus
Localization of YFP fluorescence in tobacco leaf cells [2]: accumulated within the chloroplasts | Processing (cleavage) of transit peptide from YFP by Western blot [3]: processed

B2: DGT-33: Streptomyces EPSP synthase enzyme (GENBANK NC_010572) (protein, listed as Streptomyces griseus)
chain: MGAVTVIDIPGSKSVTARALFLAAAADGTTTLLRPLRSDDTEGFAEGLKNLGYAVEQEADRWRVEGRPDGPAAPDADVYCRDGATTARFLPTLVAAAASGTYRFDASAQMRRRPLAPLTRALTALGVDLRHGGEEGHHPLTVRAAGIEGGDVVLDAGESSQYLTALLMLGPLTAKGLRIEVTDLVSAPYVEITLAMMRDFGVDVSREGNTFTVPSGGYRATAYAVEPDASTASYFFAAAALTGREVTVPGLGIGALQGDLRFVDVLRDMGAEVSVGPDATTVRSTGRLRGITVTMRDISDTMPTLAAIAPHADGPVRIEDVANTRVKECDRLEACAQNLRAMGITVHTGHDWIEILPGTPKPTGIATHGDHRIVMSFAVAGLLTPGLTYDDPGCVRKTFPRFHEVFADFAASPQA
Glyphosate tolerance [4]: significant tolerance to glyphosate | Herbicide tolerance [5]: robust tolerance to glyphosate

B3: TraP23: chloroplast transit peptide TraP23 v2, SEQ ID NO:39 (protein)
chain: MAQINKSANGVRNASLISNFSNTRQAKSPFSLSCGTRLKNSSRGLKKVAVRLIGSRVKVSAS
modifications: Chloroplast Transit Peptide
% Injury Ave [6]: 9.5%
